As a reminder, the Kd is the constant that tells how readily two partners part at equilibrium. A high value points to lower affinity. What is called koff is a measure of how fast the partners let go of each other. The low end stands for slow dissociation, the high end for fast dissociation. A word on the kon: it is the second-order rate constant of association. A higher kon goes with faster complex formation. By EC50 is commonly meant the concentration that produces a half-maximal response. A high value points to weaker potency. What is called IC50 is the point on the concentration scale where inhibition reaches its midpoint.

Assay [1] concerns the target 6xHis-LRRC4B(453–576) (human) (UniProt Q9NT99). In words: SPR. For orientation: Surface plasmon resonance follows binding to a sensor surface in real time, without labels.
The target in assay [2] is His-TEV LRRC4B (limits not told for Fig. 1G) (human). In words: ELISA.
In assay [3] the target is LRRC4B(453-576)-hFc (human) (UniProt Q9NT99). In words: ELISA.
The target of assay [4] is LRRC4B(484-576)-hFc (human) (UniProt Q9NT99). In words: ELISA. Background: In an ELISA, binding on a coated surface is turned into a signal by an enzyme label.
The target in assay [5] is His-TEV LRRC4B(36-576) (human) (UniProt Q9NT99). In words: ELISA.
The target in assay [6] is T1, PTPRF ectodomain (30-1263)-hFc (human, UniProt P10586-1 30-1263).
T1 sequence (looked up): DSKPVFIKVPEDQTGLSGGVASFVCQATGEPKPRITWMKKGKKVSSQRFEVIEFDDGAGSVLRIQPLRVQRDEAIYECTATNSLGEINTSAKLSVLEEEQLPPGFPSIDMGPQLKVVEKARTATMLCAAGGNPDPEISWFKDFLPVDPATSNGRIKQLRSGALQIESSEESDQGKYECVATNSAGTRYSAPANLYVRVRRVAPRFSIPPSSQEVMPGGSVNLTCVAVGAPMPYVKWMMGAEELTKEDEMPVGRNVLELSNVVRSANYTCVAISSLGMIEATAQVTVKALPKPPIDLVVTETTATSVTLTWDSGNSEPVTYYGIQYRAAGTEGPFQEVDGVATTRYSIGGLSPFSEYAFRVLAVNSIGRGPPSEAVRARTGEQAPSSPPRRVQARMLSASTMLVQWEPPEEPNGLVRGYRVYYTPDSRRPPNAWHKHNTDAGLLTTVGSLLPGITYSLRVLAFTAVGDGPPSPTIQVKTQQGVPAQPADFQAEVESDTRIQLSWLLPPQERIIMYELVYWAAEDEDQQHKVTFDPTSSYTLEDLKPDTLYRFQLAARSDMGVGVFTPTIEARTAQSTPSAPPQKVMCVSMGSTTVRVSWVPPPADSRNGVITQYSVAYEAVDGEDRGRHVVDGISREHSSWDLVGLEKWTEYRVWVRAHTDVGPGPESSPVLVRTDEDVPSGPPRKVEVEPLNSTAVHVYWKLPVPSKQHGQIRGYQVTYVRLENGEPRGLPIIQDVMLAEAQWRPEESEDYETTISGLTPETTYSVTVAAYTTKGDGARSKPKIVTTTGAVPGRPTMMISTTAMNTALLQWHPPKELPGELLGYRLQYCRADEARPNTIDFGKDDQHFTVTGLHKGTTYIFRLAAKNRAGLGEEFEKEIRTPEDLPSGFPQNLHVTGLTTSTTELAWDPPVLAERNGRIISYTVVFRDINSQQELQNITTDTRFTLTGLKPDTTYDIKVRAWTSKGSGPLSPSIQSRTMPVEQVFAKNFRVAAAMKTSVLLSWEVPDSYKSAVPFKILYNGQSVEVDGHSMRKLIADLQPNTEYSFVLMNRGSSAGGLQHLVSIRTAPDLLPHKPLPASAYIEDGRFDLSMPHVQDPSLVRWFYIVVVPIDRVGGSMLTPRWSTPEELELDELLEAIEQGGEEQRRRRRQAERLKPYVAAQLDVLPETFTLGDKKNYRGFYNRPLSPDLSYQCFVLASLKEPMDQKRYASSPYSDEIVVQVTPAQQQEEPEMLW
In words: ELISA.

Assay [7] has as its target FAM19A5 (wild type, recombinant) (human). In words: ELISA.

In the case of “FAM19A5 (wild type, recombinant) (ligand)”, in assay [1], the Kd came to 0.0321 nM, the dissociation rate constant (koff) came out at 0.000157 s⁻¹ and the kon was found to be 4.89e+06 M⁻¹ s⁻¹. The molecule also showed a concentration for a half-maximal effect (EC50) in assay [2] of 0.41 nM. In assay [3], this molecule gave an EC50 of 0.0685 nM. Further, the half-maximal effective concentration (EC50) in assay [4] came out at 0.112 nM. In addition, the IC50 in assay [5] came out at 281 nM.
With MT FAM19A5(R58A, R59A) (ligand), in assay [2], the EC50 came out at 0.595 nM.

B1: His-TEV LRRC4B(36-576) (domain or fragment, human, UniProt Q9NT99 36-576, looked up)
chain: AGGGGVAVTSAAGGGSPPATSCPVACSCSNQASRVICTRRDLAEVPASIPVNTRYLNLQENGIQVIRTDTFKHLRHLEILQLSKNLVRKIEVGAFNGLPSLNTLELFDNRLTTVPTQAFEYLSKLRELWLRNNPIESIPSYAFNRVPSLRRLDLGELKRLEYISEAAFEGLVNLRYLNLGMCNLKDIPNLTALVRLEELELSGNRLDLIRPGSFQGLTSLRKLWLMHAQVATIERNAFDDLKSLEELNLSHNNLMSLPHDLFTPLHRLERVHLNHNPWHCNCDVLWLSWWLKETVPSNTTCCARCHAPAGLKGRYIGELDQSHFTCYAPVIVEPPTDLNVTEGMAAELKCRTGTSMTSVNWLTPNGTLMTHGSYRVRISVLHDGTLNFTNVTVQDTGQYTCMVTNSAGNTTASATLNVSAVDPVAAGGTGSGGGGPGGSGGVGGGSGGYTYFTTVTVETLETQPGEEALQPRGTEKEPPGPTTDGVWGGGRPGDAAGPASSSTTAPAPRSSRPTEKAFTVPITDVTENALKDLDDVMKTTK
B1: the binding result in assay [6] is reported as “binds”.

B2: LRRC4B(453-576)-hFc (Fc fusion)
chain: VSAVDPVAAGGTGSGGGGPGGSGGVGGGSGGYTYFTTVTVETLETQPGEEALQPRGTEKEPPGPTTDGVWGGGRPGDAAGPASSSTTAPAPRSSRPTEKAFTVPITDVTENALKDLDDVMKTTK
B2: the concentration for half-maximal inhibition (IC50) in assay [7] amounted to 8.1 nM.
